# Experimental data from US20250340652A1 (CHENGDU DI AO PHARMACEUTICAL GROUP, published 2025).
# Biological target: T1, CC1H, major antigenic region of PLA2R (human, UniProt Q13018 21-367)
# T1 construct: Secreted from CHO-S cells, purified on Ni column; also called CCIh
# Assay: indirect ELISA, CC1h coated at 2 ug/mL, anti-human IgG Fc HRP
# Experimental: 30 μL of CC1h (2 μg/mL, diluted with 1*PBS) was added to the reaction wells of the ELISA plate, and the plate was sealed and incubated at 4° C. overnight. The plate was washed with PBST for 3 times, and the liquid in the wells was discarded. 5% PBSM was added to block the ELISA plate at room temperature for 2 hours. The plate was washed with PBST for 3 times by adding 30 μL of Abs (diluted with 1*PBS) to each well of the ELISA plate, and the plate was incubated at room temperature for 60 min. The plate was washed with PBST for 3 times, 30 μL of anti-human IgG Fc HRP (diluted with 1% PBSM at a ratio of 1:8000) was added to each well, and incubated at room temperature for 60 min. TMB was added and the reaction was stopped with 2M blocking solution and the OD value was detected at 450 nm. Recombinant Ipilimumab (Sanyou Biopharmaceuticals Co., Ltd.) was used as a negative control. The test results were illustrated in Table 2 as well as FIG. 4 and FIG. 5.
row,Binder,EC50
1,"B20 (antibody, human IgG4, kappa, V domains shown, also called P59383) VH: QVQLLESGPGLVKPSETLSLTCTVSGDSISNYFWSWIRQSPGKGLEWIGYIHYSGTVSYNPSLRSRVTISIDTSKNQFSLKLSSVTAADTAVYYCARRGRIAAAGTGYYYYGMDVWGQGTTVTVSS VL: EIVMTQSPATLSLSPGERATLSCRASQSVSNYLAWYQQKPGQAPRLLIYGASSRATGIPDRFSGSGSGTDFTLTISRLEPEDFAVYYCQQYGSSLWTFGQGTKVEIKR",5.36 ng/mL
2,"B53 (antibody, human IgG4, kappa, V domains shown, also called P59387) VH: EVQLVETGGGVVQPGRSLRLSCAASGFTFSSYAMHWVRQAPGKGLEWVAVISYDGSNKYYADSVKGRFTISRDNSKNTLYLQMNSLRAEDTAVYYCARNRYGATDYWGQGTLVTVSS VL: NIQLTQSPSSLSASVGDRVTITCRASQGINSWLAWYQQKPGKAPKLLIYAASTLQSGVPSRFSGSGSGTDFTLTINSLQPEDFATYYCQQLNSFPFTFGPGTKVHIKR",7.67 ng/mL
3,"B24 (antibody, human IgG4, kappa, V domains shown, also called P59384) VH: EVQLVETGGGLVKPGGSLRLSCAASGFTFSSYSMNWVRQAPGKGLEWVSSISSSSSYIYYADSVKGRFTISRDNAKNSLYLQMNSLRAEDTAVYYCARGRRRDFDYWGQGTLVTVSS VL: DIQMTQSPSSLPASVGDRVTITCRASQGIGTFLAWYQQHLGKAPKLLISASSTVQRGVPSRFSGSGSGTEFTLTINSLQPEDFATYYCQQLNNYPRTFGQGTKVEIKR",7.03 ng/mL
4,"A378 (antibody, human IgG4, kappa, V domains shown, also called P59380) VH: not shown VL: NIQMTQSPSSLTASVGDRITITCRASQGIRNSLAWYQQKPGTAPKLLVSAASKLQTGVPSRFSGSGSGTDYTLTISSLQTEDFATYYCQQYYGTPPTFGQGTKLEIKR",14.1 ng/mL
5,"B67 (antibody, human IgG4, kappa, V domains shown, also called P59388) VH: QITLKESGPGLVKPSGTLSLTCAVSGGSISSSNWWSWVRQPPGKGLEWIGEIYHSGSTNYNPSLKSRVTISVDKSKNQFSLKLSSVTAADTAVYYCARDDGWRYGSVYYYYMDVWGKGTTVTVSS VL: DIQLTQSPSSLSASVGDRVTITCRASQSIDDHLNWYQQKPGKVPKLLISSASTLQSGAPSRFSGSGYGTDFTLTISSLQVEDFATYYCQQSYSPPQTFGQGTKVEIKR",5.02 ng/mL
6,"B16 (antibody, human IgG4, kappa, V domains shown, also called P59382) VH: QVQLVQSGGGLVQPGGSLRLSCAASGFTFSSYAMSWVRQAPGKGLEWVSAISGSGGSTYYADSVKGRFTISRDNPKNTLFLQMTSLRSEDTAMYYCARSYGNYFTYWGQGTLVTVSS VL: EIVLTQSPATLSLSPGERATLSCRASQSVSSYLAWYQQKPGQAPRLLIYDASNRATGIPARFSGSGSGTDFTLTISSLEPEDFAVYYCQQRSNWPPELTFGGGTKVEIKR",6.67 ng/mL
7,"A67 (antibody, human IgG4, kappa, V domains shown, also called P59376) VH: QVQLVQSGGGVVQPGRSLRLPCAASGFTFSNYAMHWVRQAPGKGLEWVAVISYDGSKKYYADSVKGRFTISRDNSKNTLYLQVNSLRAEDTAVYYCATGYSSPWYGMDVWGQGTTVTVSS VL: NIQMTQSPSSLSASVGDRITITCRASQSVNSYVNWYQQTPGQAPKLLIYAASSVHNGVPVRFSGSRSGTEFILTISSLQPEDFVTYFCQQSFTSPWTFGQGTKLEMKR",6.41 ng/mL
8,"A382 (antibody, human IgG4, kappa, V domains shown, also called P59381) VH: QVQLVQSGAEVKKPGASVKVSCKASGYTFTSYAMHWVRQAPGQRLEWMGWINAGNGNTKYSQKFQGRVTITRDTSASTAYMELSSLRSEDTAVYYCATSKSVWNFDYWGQGTLVTVSS VL: EIVLTQSPATLSLSPGERATLSCRASQGISSYLAWYQQKPGQAPRLLIYDASNRATGIPARFSGSGSGTDFTLTISNLEPEDFAVYYCQQRKNWPLTFGGGSKVEIKR",13.2 ng/mL
9,"B29 (antibody, human IgG4, kappa, V domains shown, also called P59385) VH: QVQLVQSGAEVKKPGSSVKVSCKASGDTFSSFAISWVRQAPGQGLEWMGTIIPLFTTPNYAQKFQGRVTITADESTRTAYMELSSLRSEDTAVYYCARGPERIAAAGYYYYYGMDVWGQGTTVTVSS VL: EIVMTQSPGTLSLSPGQRATLSCRASQSVSSSSLAWYQQKPGQAPRLLIHGASSRATGIPDRFSGSGSGTDFTLTISRLEPEDFAVYYCQQYGTSWTFGQGTKVEIKR",3.85 ng/mL
